{
  "source": "paper PMC9905591",
  "about": "“A single point mutation expands the applicability of ostreolysin A6 in biomedicine” (Scientific Reports, 2023)",
  "target": "T1, Ostreolysin A6 (Pleurotus ostreatus, UniProt P83467 1-138)",
  "T1 sequence": "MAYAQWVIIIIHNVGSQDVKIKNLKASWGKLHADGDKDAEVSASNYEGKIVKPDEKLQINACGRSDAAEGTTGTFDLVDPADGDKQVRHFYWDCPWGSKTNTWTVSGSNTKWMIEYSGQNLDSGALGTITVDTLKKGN",
  "assay": "cell-based or functional assay",
  "data": [
    {"binder": "Δ48PlyB (pleurotolysin B) (domain or fragment, Pleurotus ostreatus, UniProt Q5W9E8 49-523, looked up) SQAGDTLNDVIQDPTRRNKLINDNNLLKGIIMGRDGPVPSSRELIVRPDTLRAIINNRATIETTTMEAEFTETLMESNYNSASVKVSAPFITANSEYSESSSFKNTETEKSMYTSSRYLFPQGRIDFTTPDSGFDDVIKLSPQFTSGVQAALAKATGTEKREALQNLFQEYGHVFRTKVHIGGVLSAHTMETFSRSENETEVKQDVKAGLEGAVKGWGGGATAGHGNTQGTITTSQNRKLNVKYIVNGGDYTKIQNTEEWVASTNQSEHWRVIEVTEVTAVADLLPQPIRGQVKDLLKPLLGKWVDVEKVPGLESLPVSVYRPKGAIPAGWFWLGDTADASKALLVKPTLPARSGRNPALTSLHQGSGMTEQPFVDLPQYQYLSTYFGSFAHDTPPGSTLRGLRPDHVLPGRYEMHGDTISTAVYVTRPVDVPFPEDECFDLKSLVRVKLPGSGNPPKPRSALKKSMVLFDSGEK", "values": [
      {"measurement": "hazard ratio against buffer, Kaplan-Meier survival of Colorado potato beetle larvae on OlyA6/PlyB-treated leaf discs", "value": 3.5}
    ]}
  ]
}
